Experiments:
[1] = target: GAL4 activation domain-hsyt11AB fusion encoded by pGAD10-hsyt11AB (human synaptotagmin 11, domains C2A and C2B) (human) (UniProt Q9BT88); test: yeast two-hybrid liquid assay (β-galactosidase, n=3)
[2] = target: GFP-syt11 (GFP fusion of full-length human synaptotagmin XI) (human) [GFP: P42212]; test: co-immunoprecipitation with anti-HA agarose, anti-GFP blot

GAL4 activation domain-hsyt11AB fusion encoded by pGAD10-hsyt11AB (human synaptotagmin 11, domains C2A and C2B) (human), sequence (Q9BT88 157-431 G231V): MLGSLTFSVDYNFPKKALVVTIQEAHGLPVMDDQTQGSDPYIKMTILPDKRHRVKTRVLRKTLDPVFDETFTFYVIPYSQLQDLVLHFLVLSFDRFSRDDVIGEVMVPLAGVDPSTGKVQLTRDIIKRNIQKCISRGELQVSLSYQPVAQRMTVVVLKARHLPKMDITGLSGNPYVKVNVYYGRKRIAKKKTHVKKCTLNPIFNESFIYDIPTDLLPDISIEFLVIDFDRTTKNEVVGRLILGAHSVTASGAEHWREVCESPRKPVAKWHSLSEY

Row | Substance | fold β-galactosidase activity over pGBT9 vector control [1] | fold less interaction compared with parkinC418R [2]
1 | GAL4 binding domain-parkin(1-465) fusion encoded by pGBT9-parkin(1-465) (from UniProt P04386 1-147; O60260 1-465) | 20 fold | –
2 | HA-tagged missense mutated parkin C289G (from UniProt O60260 1-465) (enzyme) | – | 2.5 fold less

— patent publication US8138307
